The values below come from patent US20210340215A1 (published 2021).

Test [1] addresses T1, TMPRSS2:ERG gene fusion peptide on HLA-A*02:01 (human).
T1 peptide: ALNSEALSV
The test can be described thus: multimer staining. An excerpt:
(§1) Neoantigen specific T cells were detected by combining HLA-multimer staining with 2 different fluorochrome conjugated recombinant HLA (HLA-A02.01, HLA-A03.01, or HLA-A11.01) multimer with neoantigen peptides. Anti-CD8, anti-CD4, anti-CD19, anti-CD16, anti-CD14, anti-CD56 and antibodies and Live/Dead IR dye (Invitrogen) were used for cell surface staining. CD8⁺ T cells were identified as CD8⁺CD4⁻CD19⁻CD16⁻CD14⁻CD56⁻IR⁻ (FIGS. 1, 2, 4A, 5, 6A, 8F, 8G, 9, 10A, 10B, 11, 13, 15, 16A and 16B). For sorting, up to 5×10⁶ cells were incubated with 1-20 μg multimer in 100 μL PBS+0.5% human serum. Antibodies and Live/Dead IR dye were used to stain the cells for an additional 30 min. After staining, cells were washed twice and diluted in PBS+0.5% human serum. Live/Dead IR dye-negative cells were gated and CD8⁺/multimer⁺ T cells were sorted on a FACSAria cell sorter (BD Biosciences).

Test [2] has as its target T2, BTK C481S peptide on HLA-A*02:01 (human).
T2 peptide: SLLNYLREM
Briefly: multimer staining.
Excerpt: as §1

The target of test [3] is T3, GATA3 neoORF (frameshift; CSNH) peptide on HLA-A*02:01 (human).
T3 peptide: MLTGPPARV
The test can be described thus: multimer staining.
Excerpt: as §1

The target in test [4] is T4, KRAS G12V peptide on HLA-A*11:01 (human).
T4 peptide: VVGAVGVGK
The test can be described thus: multimer staining.
Excerpt: as §1

Test [5] has as its target T5, GATA3 neoORF (frameshift; CSNH) peptide on HLA-B*08:01 (human).
T5 peptide: ESKIMFATL
Briefly: cytokine release.

B1: TMPRSS2::ERG TCR-1 (TCR, V domains shown)
Valpha: AQKVTQAQTEISVVEKEDVTLDCVYETRDTTYYLFWYKQPPSGELVFLIRRNSFDEQNEISGRYSWNFQKSTSSFNFTITASQVVDSAVYFCALSEARVFNGANSKLTFGKGITLSVRP
Vbeta: EAGVTQFPSHSVIEKGQTVTLRCDPISGHDNLYWYRRVMGKEIKFLLHFVKESKQDESGMPNNRFLAERTGGTYSTLKVQPAELEDSGVYFCASSQADSPLHFGNGTRLTVT
Consider B1, for which the binding result in test [1] is listed as “recognises”.

B2: BTK TCR-2 (TCR, V domains shown)
Valpha: QKEVEQNSGPLSVPEGAIASLNCTYSDRGSQSFFWYRQYSGKSPELIMFIYSNGDKEDGRFTAQLNKASQYVSLLIRDSQPSDSATYLCAVNEGDSSYKLIFGSGTRLLVRP
Vbeta: DSGVTQTPKHLITATGQRVTLRCSPRSGDLSVYWYQQSLDQGLQFLIQYYNGEERAKGNILERFSAQQFPDLHSELNLSSLELGDSALYFCASSPGANEKLFFGSGTQLSVL
Turning to B2, in test [2], the binding result is given as “recognises”.

B3: GATA3 TCR-1 (TCR, V domains shown)
Valpha: SQKIEQNSEALNIQEGKTATLTCNYTNYSPAYLQWYRQDPGRGPVFLLLIRENEKEKRKERLKVTFDTTLKQSLFHITASQPADSATYLCALDIYGNNRLAFGKGNQVVVIP
Vbeta: DVKVTQSSRYLVKRTGEKVFLECVQDMDHENMFWYRQDPGLGLRLIYFSYDVKMKEKGDIPEGYSVSREKKERFSLILESASTNQTSMYLCASSLDFVLAGSYSYNEQFFGPGTRLTVL
As to B3, the binding result in test [3] is given as “recognises”.

B4: BTK TCR-1 (TCR, V domains shown)
Valpha: QKEVEQNSGPLSVPEGAIASLNCTYSDRGSQSFFWYRQYSGKSPELIMFIYSNGDKEDGRFTAQLNKASQYVSLLIRDSQPSDSATYLCAVNDYGGSQGNLIFGKGTKLSVKP
Vbeta: DTGVSQNPRHKITKRGQNVTFRCDPISEHNRLYWYRQTLGQGPEFLTYFQNEAQLEKSRLLSDRFSAERPKGSFSTLEIQRTEQGDSAMYLCASSFGPDEKLFFGSGTQLSVL
With B4, the binding result in test [2] is given as “recognises”.

B5: RAS TCR-26 (TCR, V domains shown)
Valpha: DQQVKQNSPSLSVQEGRISILNCDYTNSMFDYFLWYKKYPAEGPTFLISISSIKDKNEDGRFTVFLNKSAKHLSLHIVPSQPGDSAVYFCAANAGGTSYGKLTFGQGTILTVHP
Vbeta: EPEVTQTPSHQVTQMGQEVILRCVPISNHLYFYWYRQILGQKVEFLVSFYNNEISEKSEIFDDQFSVERPDGSNFTLKIRSTKLEDSAMYFCASSEWGSTGELFFGEGSRLTVL
Take B5: the binding result in test [4] is reported as “recognises”.

B6: RAS TCR-27 (TCR, V domains shown)
Valpha: ELKVEQNPLFLSMQEGKNYTIYCNYSTTSDRLYWYRQDPGKSLESLFVLLSNGAVKQEGRLMASLDTKARLSTLHITAAVHDLSATYFCAVDIIGGKSTFGDGTTLTVKP
Vbeta: B5 Vbeta
With B6, the binding result in test [4] is “recognises”.

B7: RAS TCR-28 (TCR, V domains shown)
Valpha: DQQVKQNSPSLSVQEGRISILNCDYTNSMFDYFLWYKKYPAEGPTFLISISSIKDKNEDGRFTVFLNKSAKHLSLHIVPSQPGDSAVYFCAASAVGQEYGNKLVFGAGTILRVKS
Vbeta: DTGVSQNPRHKITKRGQNVTFRCDPISEHNRLYWYRQTLGQGPEFLTYFQNEAQLEKSRLLSDRFSAERPKGSFSTLEIQRTEQGDSAMYLCASSEYTMGTQYFGPGTRLLVL
Turning to B7, the binding result in test [4] is reported as “recognises”.

B8: GATA3 TCR-3 (TCR, V domains shown)
Valpha: AQSVSQHNHHVILSEAASLELGCNYSYGGTVNLFWYVQYPGQHLQLLLKYFSGDPLVKGIKGFEAEFIKSKFSFNLRKPSVQWSDTAEYFCAVISVTGNNRKLIWGLGTSLAVNP
Vbeta: DGGITQSPKYLFRKEGQNVTLSCEQNLNHDAMYWYRQDPGQGLRLIYYSQIVNDFQKGDIAEGYSVSREKKESFPLTVTSAQKNPTAFYLCASSRTAMNTEAFFGQGTRLTVV
Take B8: the binding result in test [5] is “recognises”.
